Source: doi:10.1101/2020.05.12.090381 (bioRxiv, 2020)

Biological target: the molecule itself
Assay: cryo-EM structure

B1: E. coli inducible lysine decarboxylase LdcI, wild type (enzyme, UniProt P0A9H3 1-715, looked up)
chain: MNVIAILNHMGVYFKEEPIRELHRALERLNFQIVYPNDRDDLLKLIENNARLCGVIFDWDKYNLELCEEISKMNENLPLYAFANTYSTLDVSLNDLRLQISFFEYALGAAEDIANKIKQTTDEYINTILPPLTKALFKYVREGKYTFCTPGHMGGTAFQKSPVGSLFYDFFGPNTMKSDISISVSELGSLLDHSGPHKEAEQYIARVFNADRSYMVTNGTSTANKIVGMYSAPAGSTILIDRNCHKSLTHLMMMSDVTPIYFRPTRNAYGILGGIPQSEFQHATIAKRVKETPNATWPVHAVITNSTYDGLLYNTDFIKKTLDVKSIHFDSAWVPYTNFSPIYEGKCGMSGGRVEGKVIYETQSTHKLLAAFSQASMIHVKGDVNEETFNEAYMMHTTTSPHYGIVASTETAAAMMKGNAGKRLINGSIERAIKFRKEIKRLRTESDGWFFDVWQPDHIDTTECWPLRSDSTWHGFKNIDNEHMYLDPIKVTLLTPGMEKDGTMSDFGIPASIVAKYLDEHGIVVEKTGPYNLLFLFSIGIDKTKALSLLRALTDFKRAFDLNLRVKNMLPSLYREDPEFYENMRIQELAQNIHKLIVHHNLPDLMYRAFEVLPTMVMTPYAAFQKELHGMTEEVYLDEMVGRINANMILPYPPGVPLVMPGEMITEESRPVLEFLQMLCEIGAHYPGFETDIHGAYRQADGRYTVKVLKEESKK
stoichiometry N: 10
